Experimental findings from PMC8096149 are described below.

What all share (assay): flow cytometry on cells
On the technique in general: A flow cytometer gives signals particle by particle.

Experiment [1] addresses Bovine2.2 H54TAG scFv with AzF.
Experiment [2] concerns the target Bovine2.2 L93TAG scFv with OPG.
The target in experiment [3] is Bovine2.2 H31TAG scFv with AzF.
Experiment [4] addresses Bovine2.2 L93TAG scFv with AzF.
Experiment [5] has as its target Bovine2.2 H31TAG scFv with OPG.
Experiment [6] deals with Bovine2.2 H54TAG scFv with OPG.
In experiment [7] the target is Donkey1.1 L93TAG scFv with OPG.
Experiment [8] deals with Donkey1.1 H54TAG scFv with OPG.
Experiment [9] deals with Donkey1.1 H31TAG scFv with AzMF.
Experiment [10] has as its target Donkey1.1 H31TAG scFv with AzF.
Experiment [11] addresses Donkey1.1 H31TAG scFv with OPG.
The target in experiment [12] is Donkey1.1 H54TAG scFv with AzF.
Experiment [13] concerns the target Donkey1.1 L93TAG scFv with AzF.

“biotinylated bovine IgG (natural protein)”: the dissociation constant Kd – broadly, the concentration at which binding is half-saturated – in experiment [1] was 0.38 µM; in experiment [2], 0.179 µM; in experiment [3] it was 0.546 µM; in experiment [4], 0.332 µM; in experiment [5], 0.601 µM; in experiment [6], 0.183 µM.
“biotinylated donkey IgG (natural protein)”: the Kd in [7] was 0.045 µM; in experiment [8], 0.0558 µM; in [10] it was 0.561 µM; in [11], 0.365 µM; in [12] it was 0.213 µM; in experiment [13] it was 0.125 µM. The antigen binding level relative to wild-type at 200 nM IgG (% of wild-type) in [9], in experiment [10] and in experiment [11] was under 10 in each case.
